Test results as given in PMC10866687.

Target: GFP-tagged Tks5 (GFP-Tks5), in 293T cells
Test: coimmunoprecipitation (IP FLAG, immunoblot quantification)
Conditions: n = 4 experiments, parent: est. 100, read off a plot

Substance: FLAG-MAP1B-LC1 (wild type) (from UniProt P46821) K41A; P42A
- percent of parent: 120 % WT

Substance: FLAG-MAP1B-LC1 (wild type) (from UniProt P46821) K60A; P61A
- percent of parent: 78 % WT

Substance: FLAG-MAP1B-LC1 (wild type) (from UniProt P46821) K95A; P96A
- percent of parent: 110 % WT

Substance: FLAG-MAP1B-LC1 (wild type) (from UniProt P46821) P6A; R7A
- percent of parent: 120 % WT

Substance: FLAG-MAP1B-LC1 (wild type) (from UniProt P46821) P66A; K67A; P68A
- percent of parent: 70 % WT

Substance: FLAG-MAP1B-LC1 (wild type) (from UniProt P46821) P145A; P146A
- percent of parent: 130 % WT
